The source of these data is the supplement of paper PMC12042874.

± gives the uncertainty stated by the source.

The data set in a line: amyloid nucleation score (Sup35N fusion, yeast selection) (log enrichment); library NNK2; higher = more nucleation; inactive = no reads after selection. In outline: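 Output and input plasmid inserts were sequenced by Illumina after psi-negative yeast carrying Sup35N fused to peptides of 20 random codons had been induced 24 hours with 100 μM copper sulfate and grown 7 days at 30°C on medium lacking adenine and uracil. The nucleation score is the DiMSum log enrichment of output over input reads, centred on the mode score of non-aggregating sequences. Sequences with under 100 input reads were excluded.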

For the substance YFSWTWVVFNAFNEVRFWTW, the amyloid nucleation score is -1.59 ± 0.61.

Substance SKKELLNAVPVGMG returned an amyloid nucleation score of 0.113 ± 0.63.

As to FNRLA, the amyloid nucleation score was -0.603 ± 1.1.

Take RYVNVCYNSSAWGLFGTTHI: the amyloid nucleation score entry is “inactive”.

RIGDRSCSVRKEHKDAQWSI showed an amyloid nucleation score of 0.196 ± 0.77.

In turn, QLNFYNQTQCVLGEVTTLN had an amyloid nucleation score of -0.476 ± 0.36.

In turn, HSNGKMNTTIHVVSELTVMR yielded an amyloid nucleation score of 4.31 ± 0.058.

For CLNWKYKNRELQVFNDSRVV, the amyloid nucleation score is -2.77 ± 0.75.

The substance TAVVLTTGLHVIQVLWHN registered an amyloid nucleation score of 2.94 ± 0.12.

YQFTGFLLGRVIASIIRHGV displayed an amyloid nucleation score of 0.023 ± 0.45.

SSRTMRFNVRG displayed an amyloid nucleation score of 0.722 ± 0.26.

WHEWCEGCGRNCSWEVGQDR yielded an amyloid nucleation score of 0.435 ± 0.23.

FSSNTKSNKRIDV came in with an amyloid nucleation score of 0.147 ± 0.8.

Substance PGIMNVPS gave an amyloid nucleation score of 0.456 ± 0.32.

Substance CVMLMCRGDV displayed an amyloid nucleation score of 3.87 ± 0.091.

Regarding FGKNYNFCNV, the amyloid nucleation score was -0.184 ± 0.63.

For the substance ISPISLTISLLIGYTSGCLR, the amyloid nucleation score is 3.15 ± 0.066.

The substance RSGCQMKCITYRGRAGGHLV registered an amyloid nucleation score of 0.882 ± 0.31.

Substance SRPFMIYREYVASSIVSNQL yielded an amyloid nucleation score of -0.606 ± 0.29.

AYFKYCSSLRGSIRDNRADW came in with an amyloid nucleation score of 0.113 ± 0.63.

As to WTCVGSYWSLHFAFSR, the amyloid nucleation score turned out to be 4.25 ± 0.12.

For the substance NLVVCGNISGCLCYDYSFGK, the amyloid nucleation score stood at 8.187 ± 0.032.

Substance FGMILPFGDIFTLASDFRVR came in with an amyloid nucleation score of -0.833 ± 1.1.

Take YYGLVQRLFSCVCYYVLTF: the amyloid nucleation score entry was “inactive”.

With WIYIIVSPFMRWLESSLLSA, the amyloid nucleation score result is “inactive”.

The substance TLCRGTVLVAFGSPNITPSK registered an amyloid nucleation score of 3.89 ± 0.059.

YLVGCKDSRTSLSSLICIRL had an amyloid nucleation score of 8.842 ± 0.03.

Take SGYPRRIYWLVGKCLWYHRA: the amyloid nucleation score turned out to be 0.921 ± 0.48.

On to KLYKCQRQCPALAKVTYGYK, for which the amyloid nucleation score came to 0.332 ± 0.27.

As to FEMGFHVWDM, the amyloid nucleation score entry was “inactive”.

YLCVYIRLYFMPLRYWKKMC: the amyloid nucleation score was -0.606 ± 0.44.

Substance YSLWLVVCYLLVCWNINCGT returned an amyloid nucleation score of 0.366 ± 0.44.

The substance DCLFLKVSPLVHQYYWIGFD gave an amyloid nucleation score of 0.306 ± 0.8.

For the substance QRARTRYGLRSLSYSAYIWS, the amyloid nucleation score was 0.807 ± 0.17.

SSSLSWLS showed an amyloid nucleation score of -0.609 ± 0.76.

The substance KSQRKVIGTLLKVYWPWGCM came in with an amyloid nucleation score of 0.654 ± 0.25.

In turn, MLYSSR had an amyloid nucleation score of -1.44 ± 0.44.

Substance DLRYTMYYDCFCYVFCPSMT returned an amyloid nucleation score of 8.166 ± 0.059.

For the substance HFTYGSSFIL, the amyloid nucleation score was found to be 3.53 ± 0.069.

Substance FKYVFCSDEVGSMYVMCNCM had an amyloid nucleation score of 8.568 ± 0.034.

The substance ITPMFPCLVVWWWESR returned an amyloid nucleation score of -0.235 ± 0.61.

As for VDILGMGRNHM, the amyloid nucleation score is -1.04 ± 0.78.

On to FDQSFFNLPQGTFLVLYSSA, for which the amyloid nucleation score result was “inactive”.

In the case of AIEKSQYLSNVDYRICSLMT, the amyloid nucleation score was -0.336 ± 0.23.

IHLIREVAQRFTSCA had an amyloid nucleation score of 0.7 ± 0.28.

The substance SQRHRAFTSWRGLMRYN came in with an amyloid nucleation score of -0.476 ± 1.1.

FRDIVWF displayed an amyloid nucleation score of -0.469 ± 0.55.

The substance VSHRG had an amyloid nucleation score of 2.37 ± 0.076.

Substance GENVVEACLWGQSQASWFIR came in with an amyloid nucleation score of -0.009 ± 0.55.

As to HLASFFSSVSYSSDLAYSGT, the amyloid nucleation score is -1.02 ± 0.78.

Substance FYSLILMMEDGSEYVKVEFR yielded an amyloid nucleation score of -1.38 ± 0.75.

LVAALRV gave an amyloid nucleation score of -0.452 ± 0.39.

Turning to CQSLIFASTYHRNSSFGKNV, the amyloid nucleation score is 2.92 ± 0.16.

As for NGDLCILLTWATWGSTE, the amyloid nucleation score was 0.686 ± 0.33.

CFGRMVTSNSSDLRYSNDRL yielded an amyloid nucleation score of 1.56 ± 0.097.

As to TNDVTSWKLTHCYLWPKADF, the amyloid nucleation score is -0.328 ± 0.32.

Substance KAGESWTEGDSAVWGFLRLE returned an amyloid nucleation score of 0.942 ± 0.81.

On to FNSLILQIIVVRV, for which the amyloid nucleation score was found to be 7.843 ± 0.04.

As to SSRQSW, the amyloid nucleation score came out at 0.082 ± 1.

The substance NEFRDIYGFSVSKLPTGGIC returned an amyloid nucleation score of -1.17 ± 0.41.

Turning to SCSVGRNKMWILVLVVVWGE, the amyloid nucleation score was found to be 0.035 ± 0.54.

Take RIRYGLKVCSMVDGMLGRDW: the amyloid nucleation score stood at 0.807 ± 0.29.

With MGYRFSGDLMEGRSTEWWRA, the amyloid nucleation score came out at 0.836 ± 0.47.

The substance YRAAWSSAAG had an amyloid nucleation score of -0.137 ± 1.1.

For the substance LFGLNFNLSNNLFMFFSYTQ, the amyloid nucleation score amounted to 3.46 ± 0.082.

Take FLGTHVHANCSGYMVMIVYR: the amyloid nucleation score was 7.773 ± 0.041.

In turn, QLGLLFFGTVLM gave an amyloid nucleation score of 1.87 ± 0.14.

As to NSDCEVPFTWFVMLIGAPGG, the amyloid nucleation score was -0.393 ± 0.76.

As for IYLTSIYRQFSMLLLGSRTE, the amyloid nucleation score entry was “inactive”.

RHDSCMCFMTDQL returned an amyloid nucleation score of -0.864 ± 0.44.

For the substance LHAGPDKSA, the amyloid nucleation score came to 0.068 ± 0.46.

For ISTMSGPFVSRLWYSAYNTA, the amyloid nucleation score is -0.345 ± 0.64.

As to QIYCVSPLSRHWYFARYGVT, the amyloid nucleation score is 0.78 ± 0.32.

As for WWDTRRHVQCCSAEAIDFME, the amyloid nucleation score turned out to be 1.3 ± 0.47.

With MSILESIRTRTRRVKGYLSC, the amyloid nucleation score stood at 0.315 ± 0.36.

DDDNRNNLLWAMNADLGLRC registered an amyloid nucleation score of 2.32 ± 0.091.

The substance TVPTMVW showed an amyloid nucleation score of -0.124 ± 0.29.

AWSVIEGFQHREAFVTYRGQ displayed an amyloid nucleation score of 3.7 ± 0.063.

LCNGLFTFMEASSGRHAPQF showed an amyloid nucleation score of 0.138 ± 0.76.

Consider SFCVALFSWSVYVTIRVHYR, for which the amyloid nucleation score was -0.545 ± 0.79.

In turn, FMMELCLALYLLSYQ had an amyloid nucleation score of 0.061 ± 0.8.

Substance YYACNKAND showed an amyloid nucleation score of -0.607 ± 1.

In turn, NDTSYGAQRRVCSTFQGCVT gave an amyloid nucleation score of 0.211 ± 0.32.

The substance SGSYF yielded an amyloid nucleation score of -0.504 ± 0.45.

Substance IGIDLVRSGSVIFPSPTWKV yielded an amyloid nucleation score of 4.411 ± 0.037.

In the case of SFGHATLYSFH, the amyloid nucleation score was -0.058 ± 0.65.

On to SEGLG, for which the amyloid nucleation score came out at 3.53 ± 0.063.

The substance AFSNSM returned an amyloid nucleation score of 0.988 ± 0.52.

On to PCISDIFKMDNIYGQQSLFP, for which the amyloid nucleation score is -0.266 ± 1.1.

For the substance YFLKSYGAFSMFQM, the amyloid nucleation score came out at 3.19 ± 0.15.

ITYLWYISVLYREMPLCCAS returned an amyloid nucleation score of 0.237 ± 0.25.

On to ELYWGS, for which the amyloid nucleation score was found to be 0.509 ± 0.57.

TGHFKKYVKGEGADDSNCAL registered an amyloid nucleation score of 0.347 ± 0.29.

Substance SPSTAMFGPMYSVCIHCEYL showed an amyloid nucleation score of 7.395 ± 0.051.

Substance FFDRMLYLRVARCTTFWPVD gave an amyloid nucleation score of 0.492 ± 0.64.

Regarding GAGPGSLAKRHYWDSSSQYE, the amyloid nucleation score was -0.024 ± 0.31.

In turn, CKRSWVSYMHW registered an amyloid nucleation score of -0.593 ± 1.1.

The substance QTYMPTFCYITFLECWSDKG displayed an amyloid nucleation score of 7.685 ± 0.035.

Consider ALWGF, for which the amyloid nucleation score was -0.235 ± 0.38.

Take NGYRG: the amyloid nucleation score is 0.376 ± 0.53.

WLYLFKGWSNLDSESFTMTS came in with an amyloid nucleation score of -0.943 ± 0.78.

Turning to NGGPRAYLDIYDLSGVSDRR, the amyloid nucleation score amounted to 0.487 ± 0.18.

For the substance LKNKSPCSR, the amyloid nucleation score was 0.039 ± 0.29.

On to ASVIQGVRLLFFRNLARSTS, for which the amyloid nucleation score came to 0.011 ± 0.79.

Substance ISIVYNSAMSIHHDFLILLC had an amyloid nucleation score of 5.32 ± 0.094.

CCVMVELLVYFPM yielded an amyloid nucleation score of 1.88 ± 0.098.

Turning to GADAGDCPRNHSCAMHAEGF, the amyloid nucleation score was 1.13 ± 0.46.

For the substance TGDSYLYRWVSARFGHRLRS, the amyloid nucleation score is -0.314 ± 0.27.

In turn, STWHLFWSP registered an amyloid nucleation score of 0.654 ± 0.26.

VCFLQFYLSIFTTHTVSTYK registered an amyloid nucleation score of -0.547 ± 0.76.

KRFYMT yielded an amyloid nucleation score of 1.31 ± 0.081.

NRILWSPNEKLLKHVTQVTL gave an amyloid nucleation score of -0.795 ± 0.61.

WEIRNAYVQVT registered an amyloid nucleation score of -0.178 ± 0.39.

As for MIFCCTRK, the amyloid nucleation score is 8.708 ± 0.078.

The substance WLPKVWLRVRWFNEEKRDGG displayed an amyloid nucleation score of -0.123 ± 0.54.

For the substance MGTPLNFGCQY, the amyloid nucleation score was -1.26 ± 0.48.

The substance GMSYGESWIGTNLAGRVRAL came in with an amyloid nucleation score of 1.29 ± 0.31.

Substance GYKHLIRVQWSKTYSSTGFC showed an amyloid nucleation score of -0.356 ± 1.1.

Regarding LNVDGAFGKTAWYFRFVIQV, the amyloid nucleation score is -0.127 ± 1.

For NEYMYVR, the amyloid nucleation score turned out to be 0.969 ± 0.52.

With LNFIRCYVSPCVSFLSLYII, the amyloid nucleation score result is “inactive”.

Substance VYYGVYLMSCFVAGGYFYCF showed an amyloid nucleation score of 3.75 ± 0.061.

As for FLVLGFMIWYTLRCLALTFS, the amyloid nucleation score entry is “inactive”.

In turn, VTYWFLLHNIRRLPRYIWLR gave an amyloid nucleation score of -0.664 ± 0.48.

As for FVDRTCLVRSMLRVLPITGG, the amyloid nucleation score was 0.065 ± 0.61.

For the substance NTRGWDAGS, the amyloid nucleation score came to 1.08 ± 0.28.

For the substance QLCLLCFLYMC, the amyloid nucleation score worked out at 3.16 ± 0.16.

NFVYMFVKL yielded an amyloid nucleation score of 4.97 ± 0.062.

CLSMFTVWSLAFASLSVTMR gave an amyloid nucleation score of -0.034 ± 0.45.

For the substance FACFI, the amyloid nucleation score is 0.271 ± 0.25.

VDRDSPKYVHA showed an amyloid nucleation score of 0.917 ± 0.32.

In the case of LVSVVNMVADSSRKSSQGEL, the amyloid nucleation score came out at 4.875 ± 0.039.

For ISDKSVV, the amyloid nucleation score result is “inactive”.

SWWIGASEVVHGSKSEGI: the amyloid nucleation score is -0.357 ± 1.1.

Substance WQRMDGIGELILMCCRYSFL showed an amyloid nucleation score of 5.819 ± 0.033.

SLGNVELRQ came in with an amyloid nucleation score of -0.679 ± 0.29.

On to IRVGICAVDGPACKRLYSCM, for which the amyloid nucleation score is -0.176 ± 0.35.

Turning to VSLLNGYGAHSDMSAVGRRR, the amyloid nucleation score was 0.649 ± 0.47.

For the substance VFPDSIGN, the amyloid nucleation score result is “inactive”.

For RTLYSGWVGHVSKEARNLFK, the amyloid nucleation score came to 6.12 ± 0.054.

Substance VTNSVSHIVDCCAHSERVWV displayed an amyloid nucleation score of 0.111 ± 0.39.
